Experimental data published in PMC6685660.

Columns and labels:
Assay in all cases: EMSA
AaNPR1 = target: T1, AaNPR1 (Artemisia annua, UniProt A0A481P8F5 1-569)
T1 sequence: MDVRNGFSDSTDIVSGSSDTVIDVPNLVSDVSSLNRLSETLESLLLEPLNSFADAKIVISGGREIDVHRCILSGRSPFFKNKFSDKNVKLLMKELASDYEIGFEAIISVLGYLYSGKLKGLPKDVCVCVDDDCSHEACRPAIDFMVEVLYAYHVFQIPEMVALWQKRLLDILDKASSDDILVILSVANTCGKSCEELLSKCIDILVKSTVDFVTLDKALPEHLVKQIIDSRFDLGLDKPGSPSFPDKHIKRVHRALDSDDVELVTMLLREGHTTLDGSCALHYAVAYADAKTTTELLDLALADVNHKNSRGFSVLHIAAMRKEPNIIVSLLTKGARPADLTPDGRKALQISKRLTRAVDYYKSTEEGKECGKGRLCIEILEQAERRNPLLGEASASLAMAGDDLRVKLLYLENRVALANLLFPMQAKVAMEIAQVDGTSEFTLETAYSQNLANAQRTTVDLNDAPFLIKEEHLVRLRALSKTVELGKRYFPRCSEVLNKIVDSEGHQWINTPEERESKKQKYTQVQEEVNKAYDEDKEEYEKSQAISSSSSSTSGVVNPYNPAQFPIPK

AaTGA6 = target: T2, AaTGA6 (Artemisia annua, UniProt A0A481P8G0 1-436)
T2 sequence: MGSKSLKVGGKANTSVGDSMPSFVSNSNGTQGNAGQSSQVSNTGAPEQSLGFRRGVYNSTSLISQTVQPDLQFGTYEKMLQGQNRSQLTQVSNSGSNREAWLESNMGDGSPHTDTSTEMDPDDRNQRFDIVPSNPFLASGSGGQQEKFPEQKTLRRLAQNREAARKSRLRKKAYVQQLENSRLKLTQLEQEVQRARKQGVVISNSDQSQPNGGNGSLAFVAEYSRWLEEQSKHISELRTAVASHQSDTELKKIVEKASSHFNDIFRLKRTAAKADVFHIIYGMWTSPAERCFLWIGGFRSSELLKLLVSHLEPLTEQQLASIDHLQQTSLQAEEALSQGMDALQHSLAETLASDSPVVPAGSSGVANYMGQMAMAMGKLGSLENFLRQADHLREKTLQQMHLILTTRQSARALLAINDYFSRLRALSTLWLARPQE

AaTGA6;AaNPR1 = target: T3, AaTGA6;AaNPR1 (Artemisia annua;Artemisia annua, UniProt A0A481P8G0;A0A481P8F5 1-436;1-569, |)
T3 sequence 1: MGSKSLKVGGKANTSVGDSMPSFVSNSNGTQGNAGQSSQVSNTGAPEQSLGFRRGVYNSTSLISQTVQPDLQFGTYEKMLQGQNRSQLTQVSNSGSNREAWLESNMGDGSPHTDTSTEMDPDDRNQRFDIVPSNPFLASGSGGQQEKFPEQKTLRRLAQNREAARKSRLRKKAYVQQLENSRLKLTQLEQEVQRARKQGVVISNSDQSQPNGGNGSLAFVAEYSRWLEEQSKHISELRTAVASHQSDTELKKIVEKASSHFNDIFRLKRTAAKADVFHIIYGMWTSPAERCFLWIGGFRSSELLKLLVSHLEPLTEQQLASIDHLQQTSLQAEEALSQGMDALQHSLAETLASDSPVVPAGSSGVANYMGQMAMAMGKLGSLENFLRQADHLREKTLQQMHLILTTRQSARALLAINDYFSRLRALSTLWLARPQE
T3 sequence 2: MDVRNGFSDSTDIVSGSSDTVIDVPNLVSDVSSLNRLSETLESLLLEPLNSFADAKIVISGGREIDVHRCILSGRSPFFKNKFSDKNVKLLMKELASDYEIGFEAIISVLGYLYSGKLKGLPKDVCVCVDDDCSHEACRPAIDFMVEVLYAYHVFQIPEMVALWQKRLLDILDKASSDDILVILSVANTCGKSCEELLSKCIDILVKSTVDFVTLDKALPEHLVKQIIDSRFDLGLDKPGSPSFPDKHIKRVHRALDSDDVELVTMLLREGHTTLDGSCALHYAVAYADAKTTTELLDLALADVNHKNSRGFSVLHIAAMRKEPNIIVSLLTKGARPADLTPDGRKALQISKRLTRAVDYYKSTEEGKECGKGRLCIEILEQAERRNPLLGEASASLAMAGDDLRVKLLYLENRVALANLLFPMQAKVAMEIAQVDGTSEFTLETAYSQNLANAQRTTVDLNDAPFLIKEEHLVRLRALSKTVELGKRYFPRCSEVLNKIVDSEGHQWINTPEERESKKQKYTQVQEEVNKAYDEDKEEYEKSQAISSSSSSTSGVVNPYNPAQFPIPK

B1: AaERF1 promoter TGACG box probe (40 bp) (dsDNA)
DNA 1: AATGATGCGTCAAGCCATGACGTCACCCCTAATCCTAAAT
DNA 2: ATTTAGGATTAGGGGTGACGTCATGGCTTGACGCATCATT
Q: Which results are given for B1?
A: binding result (AaNPR1): no binding; binding result (AaTGA6): binds; binding result (AaTGA6;AaNPR1): binds
